The source of these data is US20210024646A1 (FUDAN UNIVERSITY, published 2021).

The target of test [1] is T1, extracellular domain of human CD73 protein (CD73-ECD), C-terminus polyhistidine-tagged (human, UniProt P21589 27-547).
T1 construct: also called Human CD73-ECD; human recombinant CD73 enzyme (CD73 extracellular domain)
T1 sequence: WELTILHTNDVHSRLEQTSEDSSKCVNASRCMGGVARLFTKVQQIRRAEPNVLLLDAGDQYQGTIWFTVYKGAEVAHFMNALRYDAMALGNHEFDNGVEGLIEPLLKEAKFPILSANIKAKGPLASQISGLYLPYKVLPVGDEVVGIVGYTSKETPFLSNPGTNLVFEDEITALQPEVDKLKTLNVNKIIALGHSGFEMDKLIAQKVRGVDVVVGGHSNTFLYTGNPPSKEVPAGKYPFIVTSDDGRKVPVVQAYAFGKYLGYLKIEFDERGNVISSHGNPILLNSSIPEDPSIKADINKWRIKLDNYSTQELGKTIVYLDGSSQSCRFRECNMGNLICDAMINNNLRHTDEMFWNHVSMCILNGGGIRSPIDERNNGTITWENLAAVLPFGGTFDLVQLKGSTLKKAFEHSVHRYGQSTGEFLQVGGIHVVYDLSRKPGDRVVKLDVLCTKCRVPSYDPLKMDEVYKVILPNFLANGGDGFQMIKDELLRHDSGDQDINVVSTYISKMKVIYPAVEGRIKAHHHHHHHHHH
The experiment in a line: ELISA, coated CD73-ECD.

Test [2] deals with T2, CD73 on the surface of human tumor cells (human, UniProt P21589 27-549).
T2 construct: whole, on cells; One entry for endogenous CD73 on all cell lines; the cell line is named under assay or readout; also called CD73 receptors on the surface of tumor cells; tumor cell CD73
T2 sequence (looked up): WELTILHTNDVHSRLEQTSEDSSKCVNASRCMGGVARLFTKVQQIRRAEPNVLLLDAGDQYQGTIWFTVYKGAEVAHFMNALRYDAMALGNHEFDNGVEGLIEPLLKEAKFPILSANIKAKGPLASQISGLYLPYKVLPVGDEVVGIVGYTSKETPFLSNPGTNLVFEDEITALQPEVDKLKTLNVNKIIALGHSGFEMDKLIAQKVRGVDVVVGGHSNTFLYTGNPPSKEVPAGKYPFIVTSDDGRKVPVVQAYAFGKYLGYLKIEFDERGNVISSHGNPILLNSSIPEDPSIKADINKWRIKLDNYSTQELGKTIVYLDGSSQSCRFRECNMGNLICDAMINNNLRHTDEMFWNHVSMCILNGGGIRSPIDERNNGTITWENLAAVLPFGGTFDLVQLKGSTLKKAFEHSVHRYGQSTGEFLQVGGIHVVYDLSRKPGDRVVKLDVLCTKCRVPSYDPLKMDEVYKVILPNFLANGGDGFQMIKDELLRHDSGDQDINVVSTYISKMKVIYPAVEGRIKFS
Briefly: flow cytometry, NCI-H1299 cells.

B1: Hu001c-21 (antibody, V domains shown)
VH: QVQLVQSGAEVKKPGASVKVSCKASGYTFTNYYIYWVRQAPGQRLEWIGWIYPGNLNIKYNEKFKGRVTITADKSASTAYMELSSLRSEDTAVYYCARDDNYAWFAYWGQGTLVTVSS
VL: DIQMTQSPSSLSASVGDRVTITCKASQDVSTAVAWYQQKPGKAPKLLIYWTNTRHTGVPSRFSGSGSGTDHTLTISSLQPEDFATYYCQQHYSTPFTFGQGTKLEIK
notes: Humanized
Turning to B1, the binding result in test [1] is recorded as “binds”.

B2: Hu001c-30 (antibody, V domains shown)
VH: QVQLVQSGAEVKKPGASVKVSCKASGYTFTNYYIYWVKQRPGQRLEWIGWIYPGNLNIKYNEKFKGRSTLTADKSASTAYMELSSLRSEDTAVYYCARDDNYAWFAYWGQGTLVTVSS
VL: DIQMTQSPSSLSASVGDRVTITCKASQDVSTAVAWYQQKPGKAPKLLIYWTNTRHTGVPSRFSGSGSGTDFTLTISSLQPEDFATYYCQQHYSTPFTFGQGTKLEIK
notes: Humanized
For the molecule B2, the binding result in test [2] and in test [1] was “binds” throughout.

B3: Hu001c-28 (antibody, V domains shown)
VH: QVQLVQSGAEVKKPGASVKVSCKTSGYTFTNYYIYWVKQRPGQGLEWIGWIYPGNLNIKYNEKFKGRVTITADKSASTAYMELSSLRSEDTAVYYCARDDNYAWFAYWGQGTLVTVSS
VL: DIQMTQSPSSLSASVGDRVTITCKASQDVSTAVAWYQQKPGKSPKLLIYWTNTRHTGVPSRFSGSGSGTDHTLTISSLQPEDFATYYCQQHYSTPFTFGQGTKLEIK
notes: Humanized
With B3, the binding result in test [2] and in test [1] was “binds” in each case.

B4: Hu001c-31 (antibody, V domains shown)
VH: QVQLVQSGAEVKKPGASVKVSCKASGYTFTNYYIYWVRQAPGQRLEWIGWIYPGNLNIKYNEKFKGRSTLTADKSASTAYMELSSLRSEDTAVYYCARDDNYAWFAYWGQGTLVTVSS
VL: DIQMTQSPSSLSASVGDRVTITCKASQDVSTAVAWYQQKPGKAPKLLIYWTNTRHTGVPSRFSGSGSGTDHTLTISSLQPEDFATYYCQQHYSTPFTFGQGTKLEIK
notes: Humanized
B4: the binding result in test [2] and in test [1] was “binds” in each case.

B5: Hu001c-32 (antibody, V domains shown)
VH: QVQLVQSGAEVKKPGASVKVSCKASGYTFTNYYIYWVKQRPGQRLEWIGWIYPGNLNIKYNEKFKGRSTLTADKSASTAYMELSSLRSEDTAVYYCARDDNYAWFAYWGQGTLVTVSS
VL: DIQMTQSPSSLSASVGDRVTITCKASQDVSTAVAWYQQKPGKAPKLLIYWTNTRHTGVPSRFSGSGSGTDHTLTISSLQPEDFATYYCQQHYSTPFTFGQGTKLEIK
notes: Humanized
B5: the binding result in test [2] and in test [1] was “binds” in each case.

B6: Hu002c-6 (antibody, V domains shown)
VH: QVQLVQSGAEVKKPGASVKVSCKASGYTLTSYWMHWVRQAPGQGLEWIGEINPSQGRSNYNEKFKSRVTLTVDRSTSTVYMELSSLRSEDTAVYYCARRGVSGNYFDYWGQGTLVTVSS
VL: DIQMTQSPSSLSASVGDRVTITCKASQDINTYLSWFQQKPGKAPKSLIYRSNILVSGVPSRFSGSGSGQDYTLTISSLQPEDFATYYCLQYDEFPYTFGQGTKLEIK
notes: Humanized
For the molecule B6, the binding result in test [2] and in test [1] was “binds” in each case.

B7: Hu002c-8 (antibody, V domains shown)
VH: QVQLVQSGAEVKKPGASVKVSCKASGYTLTSYWMHWVRQAPGQGLEWIGEINPSQGRSNYNEKFKSRVTLTVDRSTSTVYMELSSLRSEDTAVYYCARRGVSGNYFDYWGQGTLVTVSS
VL: DIQMTQSPSSLSASVGDRVTITCKASQDINTYLSWFQQKPGKSPKSLIYRSNILVSGVPSRFSGSGSGQDYTLTISSLQPEDFAIYYCLQYDEFPYTFGGGTKLEI
notes: Humanized
On to B7, for which the binding result in test [2] and in test [1] was “binds” throughout.

B8: Hu002c-10 (antibody, V domains shown)
VH: QVQLVQSGAEVKKPGASVKVSCKASGYTLTSYWMHWVRQAPGQGLEWIGEINPSQGRSNYNEKFKSKVTLTVDRSTSTVYMELSSLRSEDTAVYYCARRGVSGNYFDYWGQGTLVTVSS
VL: DIQMTQSPSSLSASVGDRVTITCKASQDINTYLSWFQQKPGKAPKSLIYRSNILVSGVPSRFSGSGSGQDYTLTISSLQPEDFATYYCLQYDEFPYTFGQGTKLEIK
notes: Humanized
B8: the binding result in test [2] and in test [1] was “binds” in each case.

B9: Hu002c-15 (antibody, V domains shown)
VH: QVQLVQSGAEVKKPGASVKVSCKASGYTLTSYWMHWVKKAPGQGLEWIGEINPSQGRSNYNEKFKSKVTLTVDRSTSTVYMELSSLRSEDTAVYYCARRGVSGNYFDYWGQGTLVTVSS
VL: DIQMTQSPSSLSASVGDRVTITCKASQDINTYLSWFQQKPGKSPKSLIYRSNILVSGVPSRFSGSGSGQDYTLTISSLQPEDFATYYCLQYDEFPYTFGGGTKLEIK
notes: Humanized
With B9, the binding result in test [2] and in test [1] was “binds” throughout.

B10: Hu002c-14 (antibody, V domains shown)
VH: QVQLVQSGAEVKKPGASVKVSCKASGYTLTSYWMHWVKKAPGQGLEWIGEINPSQGRSNYNEKFKSKVTLTVDRSTSTVYMELSSLRSEDTAVYYCARRGVSGNYFDYWGQGTLVTVSS
VL: DIQMTQSPSSLSASVGDRVTITCKASQDINTYLSWFQQKPGKAPKSLIYRSNILVSGVPSRFSGSGSGQDYTLTISSLQPEDFATYYCLQYDEFPYTFGQGTKLEIK
notes: Humanized
On to B10, for which the binding result in test [2] and in test [1] was “binds” each time.

B11: Hu002c-3 (antibody, V domains shown)
VH: QVQLVQSGAEVKKPGASVKVSCKASGYTLTSYWMHWVRQAPGQGLEWMGEINPSQGRSNYNEKFKSRVTMTRDTSTSTVYMELSSLRSEDTAVYYCARRGVSGNYFDYWGQGTLVTVSS
VL: DIQMTQSPSSLSASVGDRVTITCKASQDINTYLSWFQQKPGKSPKSLIYRSNILVSGVPSRFSGSGSGQDYTLTISSLQPEDFATYYCLQYDEFPYTFGGGTKLEIK
notes: Humanized
Turning to B11, the binding result in test [2] and in test [1] was “binds” each time.

B12: Hu002c-2 (antibody, V domains shown)
VH: QVQLVQSGAEVKKPGASVKVSCKASGYTLTSYWMHWVRQAPGQGLEWMGEINPSQGRSNYNEKFKSRVTMTRDTSTSTVYMELSSLRSEDTAVYYCARRGVSGNYFDYWGQGTLVTVSS
VL: DIQMTQSPSSLSASVGDRVTITCKASQDINTYLSWFQQKPGKAPKSLIYRSNILVSGVPSRFSGSGSGQDYTLTISSLQPEDFATYYCLQYDEFPYTFGQGTKLEIK
notes: Humanized
Take B12: the binding result in test [2] and in test [1] was “binds” in each case.

B13: Hu002c-11 (antibody, V domains shown)
VH: QVQLVQSGAEVKKPGASVKVSCKASGYTLTSYWMHWVRQAPGQGLEWIGEINPSQGRSNYNEKFKSKVTLTVDRSTSTVYMELSSLRSEDTAVYYCARRGVSGNYFDYWGQGTLVTVSS
VL: DIQMTQSPSSLSASVGDRVTITCKASQDINTYLSWFQQKPGKSPKSLIYRSNILVSGVPSRFSGSGSGQDYTLTISSLQPEDFATYYCLQYDEFPYTFGGGTKLEIK
notes: Humanized
As to B13, the binding result in test [2] and in test [1] was “binds” in each case.

B14: Hu002c-7 (antibody, V domains shown)
VH: QVQLVQSGAEVKKPGASVKVSCKASGYTLTSYWMHWVRQAPGQGLEWIGEINPSQGRSNYNEKFKSRVTLTVDRSTSTVYMELSSLRSEDTAVYYCARRGVSGNYFDYWGQGTLVTVSS
VL: DIQMTQSPSSLSASVGDRVTITCKASQDINTYLSWFQQKPGKSPKSLIYRSNILVSGVPSRFSGSGSGQDYTLTISSLQPEDFATYYCLQYDEFPYTFGGGTKLEIK
notes: Humanized
B14: the binding result in test [2] and in test [1] was “binds” throughout.
